The text below walks through data of paper PMC6449940, “The Cdc42 effectors Gic1 and Gic2 regulate polarized post-Golgi secretion” (Cell & Bioscience, 2019).

For one assay, the target named is T1, His6-Cdc42 (S. cerevisiae, UniProt P19073 1-191).
T1 construct: Cdc42, small GTPase, S. cerevisiae; also called Hisx6-Cdc42; Cdc42 wild type; source: bacteria, purified (Hisx6 fusion)
In words: pull-down; GST-Gic2N (a.a.1–155) on glutathione Sepharose (20 μg), His6-Cdc42 or mutant (10 μg) in the presence of GTPγS; bound protein detected with anti-Hisx6 antibody. Particulars: both partners purified.

The target of assay [1] is T2, His6-cdc42-302 (V36A F37A) (S. cerevisiae, UniProt P19073 1-191, V36A | F37A).
T2 construct: Cdc42, S. cerevisiae, with V36A and F37A; source: bacteria, purified (Hisx6 fusion)
Described as above. Particulars: both partners purified.

T2 sequence (P19073 whole entry V36A/F37A, the tested form may be a part): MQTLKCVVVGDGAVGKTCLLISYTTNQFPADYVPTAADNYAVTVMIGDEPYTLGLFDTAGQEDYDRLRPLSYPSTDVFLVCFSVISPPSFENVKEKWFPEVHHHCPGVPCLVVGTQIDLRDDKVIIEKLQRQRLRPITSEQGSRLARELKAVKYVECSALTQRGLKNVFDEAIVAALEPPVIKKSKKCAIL
T1 sequence (P19073 whole entry, the tested form may be a part): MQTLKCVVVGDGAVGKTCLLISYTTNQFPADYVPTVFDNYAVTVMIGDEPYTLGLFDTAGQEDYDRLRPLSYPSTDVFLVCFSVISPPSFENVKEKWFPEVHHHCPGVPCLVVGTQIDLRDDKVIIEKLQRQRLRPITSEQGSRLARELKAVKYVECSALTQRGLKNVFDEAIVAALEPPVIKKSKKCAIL

B1: GST-tagged Gic2N (amino acids 1–155) (domain or fragment, S. cerevisiae (budding yeast), UniProt Q06648 1-155, looked up)
chain: MTSASITNTGNETMNLPQMRSIWLDEDEEAEKLYGLQAQQFMGSDDEENLGITFINSDKPVLSNKKNIELPPLSPNSHPSCHHRRSNSNSAKSKESSSSSSSANKTNHKKVFLKLNLLKKKLLGAQPDIRGKGISTPFDFQHISHADTRNGFQDE
notes: also called GST-Gic2N; GST-Gic2; source: GST fusion protein, purified and conjugated to glutathione Sepharose
Turning to B1, the binding result (with His6-Cdc42; in assay [1]) was “binds” throughout.
